Measurements published in the supplement of paper PMC10567573.

B1: FEM1A (parent)
chain: PCCSSSPEEPLNGESYESCCPTSR

Variants of: B1
Assay: protein stability index of a GFP-peptide fusion (GPS, HEK-293T) (PSI 1-6); higher = more stable
Conditions: c terminus: a fixed tail appended
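Further: lentivirally expressed fusions sorted by FACS into six bins by GFP to DsRed ratio, PSI derived from sequencing read proportions per bin multiplied by bin number.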

Variant | protein stability index
PCCSSSHEEPLNGESYESCCPTSR | 3.37
PCCSSSGEEPLNGESYESCCPTSR | 3.38
PCCSSSSEEPLNGESYESCCPTSR | 3.62
PCCSSSDEEPLNGESYESCCPTSR | 4.65
PCCSSSQEEPLNGESYESCCPTSR | 4.44
PCCSSSYEEPLNGESYESCCPTSR | 3.02
PCCSSSVEEPLNGESYESCCPTSR | 4.45
PCCSSSNEEPLNGESYESCCPTSR | 3.14
PCCSSSMEEPLNGESYESCCPTSR | 3.11
PCCSSSEEEPLNGESYESCCPTSR | 3.93
PCCSSSFEEPLNGESYESCCPTSR | 3.51
PCCSSSLEEPLNGESYESCCPTSR | 3.07
PCCSSSWEEPLNGESYESCCPTSR | 2.44
PCCSSSTEEPLNGESYESCCPTSR | 3.29
PCCSSSKEEPLNGESYESCCPTSR | 3.65
PCCSSSIEEPLNGESYESCCPTSR | 3.03
PCCSSSCEEPLNGESYESCCPTSR | 3.67
PCCSSSAEEPLNGESYESCCPTSR | 3.34
PCCSSSPEEPLKGESYESCCPTSR | 2.97
PCCSSSPEEPLWGESYESCCPTSR | 3.03
PCCSSSPEEPLIGESYESCCPTSR | 4.22
PCCSSSPEEPLEGESYESCCPTSR | 4.42
PCCSSSPEEPLLGESYESCCPTSR | 4.04
PCCSSSPEEPLQGESYESCCPTSR | 3.32

Variant | protein stability index
PCCSSSPEEPLSGESYESCCPTSR | 4.38
PCCSSSPEEPLDGESYESCCPTSR | 4.86
PCCSSSPEEPLAGESYESCCPTSR | 3.71
PCCSSSPEEPLGGESYESCCPTSR | 3.88
PCCSSSPEEPLMGESYESCCPTSR | 3.98
PCCSSSPEEPLFGESYESCCPTSR | 3.01
PCCSSSPEEPLPGESYESCCPTSR | 2.66
PCCSSSPEEPLTGESYESCCPTSR | 3.89
PCCSSSPEEPLYGESYESCCPTSR | 3.96
PCCSSSPEEPLRGESYESCCPTSR | 3.48
PCCSSSPEEPLHGESYESCCPTSR | 3.48
PCCSSSPEEPLCGESYESCCPTSR | 3.43
PCCSSSPEEPLVGESYESCCPTSR | 3.58
PCCSSSPEKPLNGESYESCCPTSR | 3.41
PCCSSSPERPLNGESYESCCPTSR | 3.35
PCCSSSPEFPLNGESYESCCPTSR | 2.87
PCCSSSPEAPLNGESYESCCPTSR | 3.39
PCCSSSPECPLNGESYESCCPTSR | 3.21
PCCSSSPENPLNGESYESCCPTSR | 3.64
PCCSSSPEIPLNGESYESCCPTSR | 3.33
PCCSSSPEGPLNGESYESCCPTSR | 3.67
PCCSSSPEMPLNGESYESCCPTSR | 2.69
PCCSSSPEDPLNGESYESCCPTSR | 3.64
PCCSSSPEWPLNGESYESCCPTSR | 2.02

Variant | protein stability index
PCCSSSPEPPLNGESYESCCPTSR | 3.36
PCCSSSPEHPLNGESYESCCPTSR | 3.67
PCCSSSPEQPLNGESYESCCPTSR | 3.52
PCCSSSPESPLNGESYESCCPTSR | 2.88
PCCSSSPEVPLNGESYESCCPTSR | 3.08
PCCSSSPEYPLNGESYESCCPTSR | 2.77
PCCSSSPETPLNGESYESCCPTSR | 3.34
PCCSSSPELPLNGESYESCCPTSR | 2.69
PCCSSSPEETLNGESYESCCPTSR | 3.1
PCCSSSPEEKLNGESYESCCPTSR | 3.5
PCCSSSPEEHLNGESYESCCPTSR | 3.46
PCCSSSPEESLNGESYESCCPTSR | 3.91
PCCSSSPEEILNGESYESCCPTSR | 3.6
PCCSSSPEEFLNGESYESCCPTSR | 3.5
PCCSSSPEEMLNGESYESCCPTSR | 3.73
PCCSSSPEEVLNGESYESCCPTSR | 3.73
PCCSSSPEECLNGESYESCCPTSR | 3.46
PCCSSSPEENLNGESYESCCPTSR | 2.96
PCCSSSPEEYLNGESYESCCPTSR | 3.14
PCCSSSPEEDLNGESYESCCPTSR | 4.17
PCCSSSPEEALNGESYESCCPTSR | 4.07
PCCSSSPEEWLNGESYESCCPTSR | 2.25
PCCSSSPEERLNGESYESCCPTSR | 3.82
PCCSSSPEEQLNGESYESCCPTSR | 3.65

Variant | protein stability index
PCCSSSPEELLNGESYESCCPTSR | 3.41
PCCSSSPEEELNGESYESCCPTSR | 3.7
PCCSSSPGEPLNGESYESCCPTSR | 3.06
PCCSSSPREPLNGESYESCCPTSR | 2.88
PCCSSSPKEPLNGESYESCCPTSR | 2.69
PCCSSSPYEPLNGESYESCCPTSR | 2.65
PCCSSSPWEPLNGESYESCCPTSR | 1.63
PCCSSSPQEPLNGESYESCCPTSR | 3.4
PCCSSSPNEPLNGESYESCCPTSR | 3.35
PCCSSSPAEPLNGESYESCCPTSR | 2.87
PCCSSSPHEPLNGESYESCCPTSR | 3.33
PCCSSSPVEPLNGESYESCCPTSR | 2.38
PCCSSSPDEPLNGESYESCCPTSR | 3.51
PCCSSSPFEPLNGESYESCCPTSR | 2.37
PCCSSSPPEPLNGESYESCCPTSR | 3.47
PCCSSSPLEPLNGESYESCCPTSR | 2.81
PCCSSSPIEPLNGESYESCCPTSR | 3.06
PCCSSSPMEPLNGESYESCCPTSR | 2.48
PCCSSSPCEPLNGESYESCCPTSR | 3.45
PCCSSSPTEPLNGESYESCCPTSR | 3.03
PCCSSSPEEPLNGEPYESCCPTSR | 4.14
PCCSSSPEEPLNGEMYESCCPTSR | 3.12
PCCSSSPEEPLNGEFYESCCPTSR | 2.63
PCCSSSPEEPLNGEWYESCCPTSR | 2.85

Variant | protein stability index
PCCSSSPEEPLNGECYESCCPTSR | 3.47
PCCSSSPEEPLNGEKYESCCPTSR | 3.68
PCCSSSPEEPLNGEVYESCCPTSR | 3.81
PCCSSSPEEPLNGEDYESCCPTSR | 4.61
PCCSSSPEEPLNGEEYESCCPTSR | 3.61
PCCSSSPEEPLNGENYESCCPTSR | 3.62
PCCSSSPEEPLNGEGYESCCPTSR | 3.88
PCCSSSPEEPLNGETYESCCPTSR | 2.69
PCCSSSPEEPLNGERYESCCPTSR | 3.51
PCCSSSPEEPLNGELYESCCPTSR | 3.07
PCCSSSPEEPLNGEHYESCCPTSR | 3.92
PCCSSSPEEPLNGEQYESCCPTSR | 3.52
PCCSSSPEEPLNGEAYESCCPTSR | 3.98
PCCSSSPEEPLNGEYYESCCPTSR | 3.17
PCCSSSPEEPLNGEIYESCCPTSR | 3.66
PCCSSSPEEPLNGESDESCCPTSR | 4.57
PCCSSSPEEPLNGESLESCCPTSR | 3.84
PCCSSSPEEPLNGESNESCCPTSR | 3.97
PCCSSSPEEPLNGESKESCCPTSR | 3.68
PCCSSSPEEPLNGESQESCCPTSR | 4.55
PCCSSSPEEPLNGESGESCCPTSR | 3.9
PCCSSSPEEPLNGESFESCCPTSR | 3.97
PCCSSSPEEPLNGESEESCCPTSR | 4.69
PCCSSSPEEPLNGESMESCCPTSR | 3.83

Variant | protein stability index
PCCSSSPEEPLNGESHESCCPTSR | 4.59
PCCSSSPEEPLNGESAESCCPTSR | 3.55
PCCSSSPEEPLNGESCESCCPTSR | 4.27
PCCSSSPEEPLNGESPESCCPTSR | 4.61
PCCSSSPEEPLNGESIESCCPTSR | 3.73
PCCSSYPEEPLNGESYESCCPTSR | 2.97
PCCSSWPEEPLNGESYESCCPTSR | 3.27
PCCSSVPEEPLNGESYESCCPTSR | 3.8
PCCSSTPEEPLNGESYESCCPTSR | 3.93
PCCSSRPEEPLNGESYESCCPTSR | 3.66
PCCSSQPEEPLNGESYESCCPTSR | 4.11
PCCSSSPEEPLNQESYESCCPTSR | 4.43
PCCSSSPEEPLNFESYESCCPTSR | 3.26
PCCSSSPEEPLNHESYESCCPTSR | 4.14
PCCSSSPEEPLNKESYESCCPTSR | 4.05
PCCSSSPEEPLNVESYESCCPTSR | 3.51
PCCSSSPEEPLNCESYESCCPTSR | 3.54
PCCSSSPEEPLNNESYESCCPTSR | 3.46
PCCSSSPEEPLNLESYESCCPTSR | 3.63
PCCSSSPEEPLNIESYESCCPTSR | 3.42
PCCSSSPEEPLNAESYESCCPTSR | 4.14
PCCSSSPEEPLNSESYESCCPTSR | 3.75
PCCSSSPEEPLNYESYESCCPTSR | 3.01
PCCSSSPEEPLNMESYESCCPTSR | 3.29

Variant | protein stability index
PCCSSSPEEPLNTESYESCCPTSR | 3.75
PCCSSSPEEPLNPESYESCCPTSR | 4.01
PCCSSSPEEPLNEESYESCCPTSR | 5.17
PCCSSSPEEPLNRESYESCCPTSR | 3.96
PCCSSSPEEPLNWESYESCCPTSR | 2.79
PCCSSSPEEPLNDESYESCCPTSR | 4.43
PCCSSSPEEPVNGESYESCCPTSR | 4.2
PCCSSSPEEPYNGESYESCCPTSR | 3.55
PCCSSSPEEPSNGESYESCCPTSR | 3.84
PCCSSSPEEPRNGESYESCCPTSR | 3.93
PCCSSSPEEPWNGESYESCCPTSR | 2.82
PCCSSSPEEPCNGESYESCCPTSR | 3.54
PCCSSSPEEPMNGESYESCCPTSR | 3.79
PCCSSSPEEPNNGESYESCCPTSR | 4.57
PCCSSSPEEPANGESYESCCPTSR | 4.52
PCCSSSPEEPENGESYESCCPTSR | 3.5
PCCSSSPEEPKNGESYESCCPTSR | 3.77
PCCSSSPEEPHNGESYESCCPTSR | 4.2
PCCSSSPEEPDNGESYESCCPTSR | 3.94
PCCSSSPEEPGNGESYESCCPTSR | 3.81
PCCSSSPEEPFNGESYESCCPTSR | 3.75
PCCSSSPEEPPNGESYESCCPTSR | 4.08
PCCSSSPEEPINGESYESCCPTSR | 3.72
PCCSSSPEEPTNGESYESCCPTSR | 4.11

Variant | protein stability index
PCCSSSPEEPQNGESYESCCPTSR | 3.86
PCCSSSPEEPLNGTSYESCCPTSR | 2.94
PCCSSSPEEPLNGMSYESCCPTSR | 2.99
PCCSSSPEEPLNGHSYESCCPTSR | 3.81
PCCSSSPEEPLNGVSYESCCPTSR | 2.8
PCCSSSPEEPLNGQSYESCCPTSR | 3.33
PCCSSSPEEPLNGRSYESCCPTSR | 3.62
PCCSSSPEEPLNGKSYESCCPTSR | 2.9
PCCSSSPEEPLNGDSYESCCPTSR | 3.77
PCCSSSPEEPLNGISYESCCPTSR | 2.88
PCCSSSPEEPLNGASYESCCPTSR | 3.77
PCCSSSPEEPLNGLSYESCCPTSR | 3.01
PCCSSSPEEPLNGFSYESCCPTSR | 2.71
PCCSSSPEEPLNGGSYESCCPTSR | 2.24
PCCSSSPEEPLNGCSYESCCPTSR | 2.86
PCCSSSPEEPLNGYSYESCCPTSR | 2.41
PCCSSSPEEPLNGSSYESCCPTSR | 3.14
PCCSSSPEEPLNGPSYESCCPTSR | 3.41
PCCSSSPEEPLNGWSYESCCPTSR | 2.57
PCCSSSPEEPLNGNSYESCCPTSR | 3.66
